Experimental data from US8829044B2, “Stabilized vitamin C derivatives having a peptide molecule, preparation method thereof, and composition containing the same” (Peotron Co. Ltd., priority 2006, dated 2014).
Blank lines part the entries; values can stand above or below the compound they belong to. Peptide text beside a SMILES is read from it. * marks the point of attachment. X1 = O=C(CCC(=O)*)O[C@@H](CO)[C@H]1OC(=O)C(OP(=O)(O)O)=C1O; X2 = O=C(CCC(=O)*)O[C@@H](CO)[C@H]1OC(=O)C(O)=C1O

Experiment: Stability in purified water by change of UV (254 nm) absorbance
Procedure: Stability of each substance was evaluated, while being maintained at 25° C. and 50° C. for 30 days, by observing the change of UV (254 nm) absorbance.

[1] = buffer, Remaining test substance (%)

Compound: C[C@@H](O)[C@H](NC(=O)[C@H](CCCCN)NC(=O)CCC(=O)O[C@@H](CO)[C@H]1OC(=O)C(O)=C1O)C(=O)N[C@H](C(=O)N[C@@H](CCCCN)C(=O)N[C@@H](CO)C(=O)O)[C@@H](C)O [succinoyl ascorbyl pentapeptide] (X2-KTTKS-OH)
- remaining at 24 h, 10 μg/mL (buffer, Remaining test substance (%), day 1, 25° C., 10 μg/mL in purified water): 60%
- remaining at 24 h, 10 μg/mL (buffer, Remaining test substance (%), day 1, 50° C., 10 μg/mL in purified water): 50%
- remaining at 48 h, 10 μg/mL (buffer, Remaining test substance (%), day 2, 25° C., 10 μg/mL in purified water): 20%
- remaining at 48 h, 10 μg/mL (buffer, Remaining test substance (%), day 2, 50° C., 10 μg/mL in purified water): 10%
- remaining at 72 h, 10 μg/mL (buffer, Remaining test substance (%), day 3, 25° C., 10 μg/mL in purified water): 10%
- remaining at 72 h, 10 μg/mL (buffer, Remaining test substance (%), day 3, 50° C., 10 μg/mL in purified water): 0%
- remaining at 120 h, 10 μg/mL (buffer, Remaining test substance (%), day 5, 50° C., 10 μg/mL in purified water): 0%
- remaining at 240 h, 10 μg/mL (buffer, Remaining test substance (%), day 10, 50° C., 10 μg/mL in purified water): 0%
- remaining at 480 h, 10 μg/mL (buffer, Remaining test substance (%), day 20, 50° C., 10 μg/mL in purified water): 0%
- remaining at 720 h, 10 μg/mL (buffer, Remaining test substance (%), day 30, 50° C., 10 μg/mL in purified water): 0%
- Remaining test substance (%) (day 0, 25° C., 10 μg/mL in purified water): 100%
- Remaining test substance (%) (day 0, 50° C., 10 μg/mL in purified water): 100%
- Remaining test substance (%) (day 5, 25° C., 10 μg/mL in purified water): 0%
- Remaining test substance (%) (day 10, 25° C., 10 μg/mL in purified water): 0%
- Remaining test substance (%) (day 20, 25° C., 10 μg/mL in purified water): 0%
- Remaining test substance (%) (day 30, 25° C., 10 μg/mL in purified water): 0%

- Remaining test substance (%) (buffer, 0 day, 10 μg/mL): 100%
- Remaining test substance (%) (buffer, 2 day, 10 μg/mL): 0%
- Remaining test substance (%) (buffer, 3 day, 10 μg/mL): 0%
- Remaining test substance (%) (buffer, 5 day, 10 μg/mL): 0%
- Remaining test substance (%) (buffer, 10 day, 10 μg/mL): 0%
- Remaining test substance (%) (buffer, 20 day, 10 μg/mL): 0%
- Remaining test substance (%) (buffer, 30 day, 10 μg/mL): 0%
Compound: O=C1O[C@H]([C@@H](O)CO)C(O)=C1O [Vitamin C, ascorbic acid]

Compound: C[C@@H](O)[C@H](NC(=O)[C@H](CCCCN)NC(=O)CCC(=O)O[C@@H](CO)[C@H]1OC(=O)C(OP(=O)(O)O)=C1O)C(=O)N[C@H](C(=O)N[C@@H](CCCCN)C(=O)N[C@@H](CO)C(=O)O)[C@@H](C)O [Ic-1, 2-phospho-5-(succinyl-lysine-threonine-threonine-lysine-serine) ascorbic acid] (X1-KTTKS-OH)
- remaining at 24 h, 10 μg/mL [1]: 100%
- remaining at 48 h, 10 μg/mL [1]: 100%
- remaining at 72 h, 10 μg/mL [1]: 100%
- remaining at 120 h, 10 μg/mL [1]: 100%
- remaining at 240 h, 10 μg/mL [1]: 100%
